In US20200199241A1 (Chugai, published 2020) one finds Kd data, which are given here for twelve molecules.

B1: IgG1-F500 (antibody)
heavy: QVQLQESGPGLVKPSETLSLTCAVSGHSISHDHAWSWVRQPPGEGLEWIGFISYSGITNYNPSLQGRVTISRDNSKNTLYLQMNSLRAEDTAVYYCARSLARTTAMDYWGEGTLVTVSSASTKGPSVFPLAPSSKSTSGGTAALGCLVKDYFPEPVTVSWNSGALTSGVHTFPAVLQSSGLYSLSSVVTVPSSSLGTQTYICNVNHKPSNTKVDKKVEPKSCDKTHTCPPCPAPELLGGPSVFLFPPKPKDTLMISRTSEVTCVVVDVSHEDPEVKFNWYVDGVEVHNAKTKPREEQYNSTYRVVSVLQVLHQDWLNGKEYKCKVSNKALPAPIEKTISKAKGQPREPQVYTLPPSRDELTKNQVSLTCLVKGFYPSDIAVEWESNGQPENNYKTTPPVLDSDGSFFLYSKLTVDKSRWQQGNVFSCSVLHEALHYHYTQKSLSLSP
light: not shown
notes: EU numbering; copies: 2 + 2
B2: IgG1-F519 (antibody)
heavy: QVQLQESGPGLVKPSETLSLTCAVSGHSISHDHAWSWVRQPPGEGLEWIGFISYSGITNYNPSLQGRVTISRDNSKNTLYLQMNSLRAEDTAVYYCARSLARTTAMDYWGEGTLVTVSSASTKGPSVFPLAPSSKSTSGGTAALGCLVKDYFPEPVTVSWNSGALTSGVHTFPAVLQSSGLYSLSSVVTVPSSSLGTQTYICNVNHKPSNTKVDKKVEPKSCDKTHTCPPCPAPELLGGPSVFLFPPKPKDTLMISRTVEVTCVVVDVSHEDPEVKFNWYVDGVEVHEAKTKPREEQYNSTYRVVSVLQVLHQDWLNGKEYKCKVSNKALPAPIEKTISKAKGQPREPQVYTLPPSRDELTKNQVSLTCLVKGFYPSDIAVEWESNGQPENNYKTTPPVLDSDGSFFLYSKLTVDKSRWQQGNVFSCSVMHEALHYHYTQKSLSLSP
light: not shown
notes: EU numbering; copies: 2 + 2
B3: IgG1-F509 (antibody)
heavy: QVQLQESGPGLVKPSETLSLTCAVSGHSISHDHAWSWVRQPPGEGLEWIGFISYSGITNYNPSLQGRVTISRDNSKNTLYLQMNSLRAEDTAVYYCARSLARTTAMDYWGEGTLVTVSSASTKGPSVFPLAPSSKSTSGGTAALGCLVKDYFPEPVTVSWNSGALTSGVHTFPAVLQSSGLYSLSSVVTVPSSSLGTQTYICNVNHKPSNTKVDKKVEPKSCDKTHTCPPCPAPELLGGPSVFLFPPKPKDTLMISRTVEVTCVVVDVSHEDPEVKFNWYVDGVEVHNAKTKPREEQYNSTYRVVSVLQVLHQDWLNGKEYKCKVSNKALPAPIEKTISKAKGQPREPQVYTLPPSRDELTKNQVSLTCLVKGFYPSDIAVEWESAGQPENNYKTTPPVLDSDGSFFLYSKLTVDKSRWQQGNVFSCSVLHEALHYHYTQKSLSLSP
light: not shown
notes: EU numbering; copies: 2 + 2
B4: IgG1-F510 (antibody)
heavy: QVQLQESGPGLVKPSETLSLTCAVSGHSISHDHAWSWVRQPPGEGLEWIGFISYSGITNYNPSLQGRVTISRDNSKNTLYLQMNSLRAEDTAVYYCARSLARTTAMDYWGEGTLVTVSSASTKGPSVFPLAPSSKSTSGGTAALGCLVKDYFPEPVTVSWNSGALTSGVHTFPAVLQSSGLYSLSSVVTVPSSSLGTQTYICNVNHKPSNTKVDKKVEPKSCDKTHTCPPCPAPELLGGPSVFLFPPKPKDTLMISRTVEVTCVVVDVSHEDPEVKFNWYVDGVEVHNAKTKPREEQYNSTYRVVSVLQVLHQDWLNGKEYKCKVSNKALPAPIEKTISKAKGQPREPQVYTLPPSRDELTKNQVSLTCLVKGFYPSDIAVEWESNGQPEANYKTTPPVLDSDGSFFLYSKLTVDKSRWQQGNVFSCSVLHEALHYHYTQKSLSLSP
light: not shown
notes: EU numbering; copies: 2 + 2
B5: IgG1-F521 (antibody)
heavy: QVQLQESGPGLVKPSETLSLTCAVSGHSISHDHAWSWVRQPPGEGLEWIGFISYSGITNYNPSLQGRVTISRDNSKNTLYLQMNSLRAEDTAVYYCARSLARTTAMDYWGEGTLVTVSSASTKGPSVFPLAPSSKSTSGGTAALGCLVKDYFPEPVTVSWNSGALTSGVHTFPAVLQSSGLYSLSSVVTVPSSSLGTQTYICNVNHKPSNTKVDKKVEPKSCDKTHTCPPCPAPELLGGPSVFLFPPKPKDTLMISRTVEVTCVVVDVSHEDPEVKFNWYVDGVEVHEAKTKPREEQYNSTYRVVSVLQVLHQDWLNGKEYKCKVSNKALPAPIEKTISKAKGQPREPQVYTLPPSRDELTKNQVSLTCLVKGFYPSDIAVEWESNGQPENNYKTTPPVLDSDGSFFLYSKLTVDKSRWQQGNVFSCSVYHEALHYHYTQKSLSLSP
light: not shown
notes: EU numbering; copies: 2 + 2
B6: IgG1-F518 (antibody)
heavy: QVQLQESGPGLVKPSETLSLTCAVSGHSISHDHAWSWVRQPPGEGLEWIGFISYSGITNYNPSLQGRVTISRDNSKNTLYLQMNSLRAEDTAVYYCARSLARTTAMDYWGEGTLVTVSSASTKGPSVFPLAPSSKSTSGGTAALGCLVKDYFPEPVTVSWNSGALTSGVHTFPAVLQSSGLYSLSSVVTVPSSSLGTQTYICNVNHKPSNTKVDKKVEPKSCDKTHTCPPCPAPELLGGPSVFLFPPKPKDTLMISRTTEVTCVVVDVSHEDPEVKFNWYVDGVEVHEAKTKPREEQYNSTYRVVSVLTVLHQDWLNGKEYKCKVSNKALPAPIEKTISKAKGQPREPQVYTLPPSRDELTKNQVSLTCLVKGFYPSDIAVEWESNGQPENNYKTTPPVLDSDGSFFLYSKLTVDKSRWQQGNVFSCSVMHEALHYHYTQKSLSLSP
light: not shown
notes: EU numbering; copies: 2 + 2
B7: IgG1-F507 (antibody)
heavy: QVQLQESGPGLVKPSETLSLTCAVSGHSISHDHAWSWVRQPPGEGLEWIGFISYSGITNYNPSLQGRVTISRDNSKNTLYLQMNSLRAEDTAVYYCARSLARTTAMDYWGEGTLVTVSSASTKGPSVFPLAPSSKSTSGGTAALGCLVKDYFPEPVTVSWNSGALTSGVHTFPAVLQSSGLYSLSSVVTVPSSSLGTQTYICNVNHKPSNTKVDKKVEPKSCDKTHTCPPCPAPELLGGPSVFLFPPKPKDTLMISRTVEVTCVVVDVSHEDPEVKFNWYVDGVEVHAAKTKPREEQYNSTYRVVSVLQVLHQDWLNGKEYKCKVSNKALPAPIEKTISKAKGQPREPQVYTLPPSRDELTKNQVSLTCLVKGFYPSDIAVEWESNGQPENNYKTTPPVLDSDGSFFLYSKLTVDKSRWQQGNVFSCSVLHEALHYHYTQKSLSLSP
light: not shown
notes: EU numbering; copies: 2 + 2
B8: IgG1-F506 (antibody)
heavy: QVQLQESGPGLVKPSETLSLTCAVSGHSISHDHAWSWVRQPPGEGLEWIGFISYSGITNYNPSLQGRVTISRDNSKNTLYLQMNSLRAEDTAVYYCARSLARTTAMDYWGEGTLVTVSSASTKGPSVFPLAPSSKSTSGGTAALGCLVKDYFPEPVTVSWNSGALTSGVHTFPAVLQSSGLYSLSSVVTVPSSSLGTQTYICNVNHKPSNTKVDKKVEPKSCDKTHTCPPCPAPELLGGPSVFLFPPKPKDTLMISRTVEVTCVVVDVSHEDPEVKFNWYVDGVEVHNAKTKPREEQYASTYRVVSVLQVLHQDWLNGKEYKCKVSNKALPAPIEKTISKAKGQPREPQVYTLPPSRDELTKNQVSLTCLVKGFYPSDIAVEWESNGQPENNYKTTPPVLDSDGSFFLYSKLTVDKSRWQQGNVFSCSVLHEALHYHYTQKSLSLSP
light: not shown
notes: EU numbering; copies: 2 + 2
B9: IgG1-F523 (antibody)
heavy: QVQLQESGPGLVKPSETLSLTCAVSGHSISHDHAWSWVRQPPGEGLEWIGFISYSGITNYNPSLQGRVTISRDNSKNTLYLQMNSLRAEDTAVYYCARSLARTTAMDYWGEGTLVTVSSASTKGPSVFPLAPSSKSTSGGTAALGCLVKDYFPEPVTVSWNSGALTSGVHTFPAVLQSSGLYSLSSVVTVPSSSLGTQTYICNVNHKPSNTKVDKKVEPKSCDKTHTCPPCPAPELLGGPSVFLFPPKPKDTLMISRTVEVTCVVVDVSHEDPEVKFNWYVDGVEVHNAKTKPREEQYNSTYRVVSALQVLHQDWLNGKEYKCKVSNKALPAPIEKTISKAKGQPREPQVYTLPPSRDELTKNQVSLTCLVKGFYPSDIAVEWESNGQPENNYKTTPPVLDSDGSFFLYSKLTVDKSRWQQGNVFSCSVYHEALHYHYTQKSLSLSP
light: not shown
notes: EU numbering; copies: 2 + 2
B10: IgG1-F517 (antibody)
heavy: QVQLQESGPGLVKPSETLSLTCAVSGHSISHDHAWSWVRQPPGEGLEWIGFISYSGITNYNPSLQGRVTISRDNSKNTLYLQMNSLRAEDTAVYYCARSLARTTAMDYWGEGTLVTVSSASTKGPSVFPLAPSSKSTSGGTAALGCLVKDYFPEPVTVSWNSGALTSGVHTFPAVLQSSGLYSLSSVVTVPSSSLGTQTYICNVNHKPSNTKVDKKVEPKSCDKTHTCPPCPAPELLGGPSVFLFPPKPKDTLMISRTVEVTCVVVDVSHEDPEVKFNWYVDGVEVHEAKTKPREEQYNSTYRVVSVLTVLHQDWLNGKEYKCKVSNKALPAPIEKTISKAKGQPREPQVYTLPPSRDELTKNQVSLTCLVKGFYPSDIAVEWESNGQPENNYKTTPPVLDSDGSFFLYSKLTVDKSRWQQGNVFSCSVMHEALHYHYTQKSLSLSP
light: not shown
notes: EU numbering; copies: 2 + 2
B11: IgG1-F508 (antibody)
heavy: QVQLQESGPGLVKPSETLSLTCAVSGHSISHDHAWSWVRQPPGEGLEWIGFISYSGITNYNPSLQGRVTISRDNSKNTLYLQMNSLRAEDTAVYYCARSLARTTAMDYWGEGTLVTVSSASTKGPSVFPLAPSSKSTSGGTAALGCLVKDYFPEPVTVSWNSGALTSGVHTFPAVLQSSGLYSLSSVVTVPSSSLGTQTYICNVNHKPSNTKVDKKVEPKSCDKTHTCPPCPAPELLGGPSVFLFPPKPKDTLMISRTVEVTCVVVDVSHEDPEVKFNWYVDGVEVHNAKTKPREEQYNSTYRVVSVLQVLHQDWLAGKEYKCKVSNKALPAPIEKTISKAKGQPREPQVYTLPPSRDELTKNQVSLTCLVKGFYPSDIAVEWESNGQPENNYKTTPPVLDSDGSFFLYSKLTVDKSRWQQGNVFSCSVLHEALHYHYTQKSLSLSP
light: not shown
notes: EU numbering; copies: 2 + 2
B12: IgG1-F526 (antibody)
heavy: QVQLQESGPGLVKPSETLSLTCAVSGHSISHDHAWSWVRQPPGEGLEWIGFISYSGITNYNPSLQGRVTISRDNSKNTLYLQMNSLRAEDTAVYYCARSLARTTAMDYWGEGTLVTVSSASTKGPSVFPLAPSSKSTSGGTAALGCLVKDYFPEPVTVSWNSGALTSGVHTFPAVLQSSGLYSLSSVVTVPSSSLGTQTYICNVNHKPSNTKVDKKVEPKSCDKTHTCPPCPAPELLGGPSVFLFPPKPKDTLMISRTTEVTCVVVDVSHEDPEVKFNWYVDGVEVHNAKTKPREEQYNSTYRVVSVLQVLHQDWLNGKEYKCKVSNKALPAPIEKTISKAKGQPREPQVYTLPPSRDELTKNQVSLTCLVKGFYPSDIAVEWESNGQPENNYKTTPPVLDSDGSFFLYSKLTVDKSRWQQGNVFSCSVYHEALHYHYTQKSLSLSP
light: not shown
notes: EU numbering; copies: 2 + 2

T1 sequence (chain, as listed by the source limits assumed, chain 1 of 2): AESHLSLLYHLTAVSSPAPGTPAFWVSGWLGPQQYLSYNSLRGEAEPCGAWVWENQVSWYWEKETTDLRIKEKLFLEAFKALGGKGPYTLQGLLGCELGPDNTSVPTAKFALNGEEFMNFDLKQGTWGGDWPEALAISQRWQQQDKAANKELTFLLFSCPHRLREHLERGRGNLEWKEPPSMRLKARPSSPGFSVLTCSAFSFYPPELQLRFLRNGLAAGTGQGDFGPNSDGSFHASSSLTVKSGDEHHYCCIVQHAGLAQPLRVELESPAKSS
T1 sequence (P61769 21-119 limits assumed, chain 2 of 2): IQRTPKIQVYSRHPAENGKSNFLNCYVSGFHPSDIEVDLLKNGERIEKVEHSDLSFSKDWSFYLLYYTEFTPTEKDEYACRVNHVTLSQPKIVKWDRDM

This assay addresses T1, human FcRn (soluble human FcRn complexed with β2-microglobulin) (human, UniProt P61769 21-119, limits assumed).
T1 construct: also called hFcRn
The experiment in a line: SPR, pH 7.0.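 Note: antibodies captured on a Protein L sensor chip with human FcRn injected as analyte, KD calculated from fitted association and dissociation rate constants.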
In turn, B1 gave a Kd of 43 nM. With B2 the figure was 26 nM. To B3 belongs 58 nM; to B4, 53 nM; to B5, 11 nM. In turn, B6 had a Kd of 420 nM.

B7 registered an equilibrium dissociation constant (Kd) of 51 nM. With B8 the figure was 190 nM; with B9, 26 nM.

In turn, B10 yielded an equilibrium dissociation constant (Kd) of 310 nM. To B11 belongs 110 nM. In turn, B12 displayed an equilibrium dissociation constant (Kd) of 19 nM.
